Laboratory results from the supplement of paper PMC9112550, “Optimization of the antimicrobial peptide Bac7 by deep mutational scanning” (BMC Biology, 2022).

test system: Escherichia coli TOP10; experiment: shrunken log2 fold change of peptide-encoding DNA abundance (4.5 h post-induction vs induction); higher = less antimicrobial activity (less host growth inhibition); conditions: time post-induction: 4.5 h; library: site-saturation at positions 5, 18, 19, 20
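Also: peptides expressed intracellularly from a pBAD plasmid library in pooled LB shake-flask culture, induced with 0.3% L-arabinose, DNA abundance read by NGS, three biological replicates, DESeq2 with apeglm shrinkage.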

Row | Sequence | shrunken log2 fold change
1 | RRIRKRPPRLPRPRPRPWTCPRP | -0.0961
2 | RRIRKRPPRLPRPRPRPWTFPRP | 0.489
3 | RRIRKRPPRLPRPRPRPWTHPRP | 0.0375
4 | RRIRKRPPRLPRPRPRPWTTPRP | -0.0228
5 | RRIRKRPPRLPRPRPRPWTVPRP | -1.8
6 | RRIRKRPPRLPRPRPRPWVSPRP | 0.345
7 | RRIRKRPPRLPRPRPRPWVWPRP | 0.445
8 | RRIRKRPPRLPRPRPRPWWPPRP | 0.0304
9 | RRIRKRPPRLPRPRPRPWYMPRP | -0.158
10 | RRIRKRPPRLPRPRPRPYAEPRP | -0.0528
11 | RRIRKRPPRLPRPRPRPYCTPRP | -0.19
12 | RRIRKRPPRLPRPRPRPYFAPRP | -0.0674
13 | RRIRKRPPRLPRPRPRPYGTPRP | -0.272
14 | RRIRKRPPRLPRPRPRPYHIPRP | -0.323
15 | RRIRKRPPRLPRPRPRPYIPPRP | -0.651
16 | RRIRKRPPRLPRPRPRPYISPRP | -0.0238
17 | RRIRKRPPRLPRPRPRPYIYPRP | -0.0483
18 | RRIRKRPPRLPRPRPRPYKLPRP | -0.281
19 | RRIRKRPPRLPRPRPRPYLAPRP | -0.295
20 | RRIRKRPPRLPRPRPRPYLIPRP | -1.9
21 | RRIRKRPPRLPRPRPRPYMKPRP | -0.134
22 | RRIRKRPPRLPRPRPRPYMNPRP | -0.505
23 | RRIRKRPPRLPRPRPRPYNTPRP | -0.339
24 | RRIRKRPPRLPRPRPRPYPFPRP | 0.00884
25 | RRIRKRPPRLPRPRPRPYPGPRP | -0.142

Row | Sequence | shrunken log2 fold change
26 | RRIRKRPPRLPRPRPRPYPTPRP | -0.0559
27 | RRIRKRPPRLPRPRPRPYQIPRP | -0.000276
28 | RRIRKRPPRLPRPRPRPYRKPRP | 0.0413
29 | RRIRKRPPRLPRPRPRPYSFPRP | -0.119
30 | RRIRKRPPRLPRPRPRPYTLPRP | 0.0187
31 | RRIRKRPPRLPRPRPRPYWFPRP | 0.00102
32 | RRIRKRPPRLPRPRPRPYWNPRP | -0.106
33 | RRIRKRPPRLPRPRPRPYWWPRP | -0.454
34 | RRIRKRPPRLPRPRPRPYYAPRP | -0.0013
35 | RRIRLRPPRLPRPRPRPAAWPRP | 0.32
36 | RRIRLRPPRLPRPRPRPACNPRP | -0.191
37 | RRIRLRPPRLPRPRPRPACYPRP | -0.202
38 | RRIRLRPPRLPRPRPRPAFRPRP | 0.0862
39 | RRIRLRPPRLPRPRPRPAHSPRP | 0.0693
40 | RRIRLRPPRLPRPRPRPAIPPRP | -0.0222
41 | RRIRLRPPRLPRPRPRPAIQPRP | 0.987
42 | RRIRLRPPRLPRPRPRPAIRPRP | -0.111
43 | RRIRLRPPRLPRPRPRPAIWPRP | 0.016
44 | RRIRLRPPRLPRPRPRPANCPRP | -0.291
45 | RRIRLRPPRLPRPRPRPANHPRP | -0.333
46 | RRIRLRPPRLPRPRPRPAPLPRP | 0.273
47 | RRIRLRPPRLPRPRPRPARDPRP | 0.426
48 | RRIRLRPPRLPRPRPRPATEPRP | 0.149
49 | RRIRLRPPRLPRPRPRPATPPRP | 1.05
50 | RRIRLRPPRLPRPRPRPAVEPRP | -0.0223

Row | Sequence | shrunken log2 fold change
51 | RRIRLRPPRLPRPRPRPAWMPRP | -0.0208
52 | RRIRLRPPRLPRPRPRPAWSPRP | 0.103
53 | RRIRLRPPRLPRPRPRPAYHPRP | -0.249
54 | RRIRLRPPRLPRPRPRPCATPRP | 0.331
55 | RRIRLRPPRLPRPRPRPCCMPRP | -0.408
56 | RRIRLRPPRLPRPRPRPCDPPRP | -0.14
57 | RRIRLRPPRLPRPRPRPCDRPRP | -0.114
58 | RRIRLRPPRLPRPRPRPCEPPRP | 0.023
59 | RRIRLRPPRLPRPRPRPCFYPRP | -0.504
60 | RRIRLRPPRLPRPRPRPCGTPRP | -0.0819
61 | RRIRLRPPRLPRPRPRPCHCPRP | -0.0469
62 | RRIRLRPPRLPRPRPRPCHGPRP | -0.0309
63 | RRIRLRPPRLPRPRPRPCIGPRP | -0.147
64 | RRIRLRPPRLPRPRPRPCKPPRP | -0.1
65 | RRIRLRPPRLPRPRPRPCMSPRP | 0.0623
66 | RRIRLRPPRLPRPRPRPCNHPRP | -0.0991
67 | RRIRLRPPRLPRPRPRPCNWPRP | 0.0532
68 | RRIRLRPPRLPRPRPRPCQQPRP | -0.047
69 | RRIRLRPPRLPRPRPRPCSLPRP | 0.00822
70 | RRIRLRPPRLPRPRPRPCSMPRP | -0.00844
71 | RRIRLRPPRLPRPRPRPCSRPRP | 0.06
72 | RRIRLRPPRLPRPRPRPCSTPRP | -0.0337
73 | RRIRLRPPRLPRPRPRPCSYPRP | -0.259
74 | RRIRLRPPRLPRPRPRPCVCPRP | -0.00623
75 | RRIRLRPPRLPRPRPRPCWDPRP | -0.104
